Results taken from PMC11742690.

Molecular target: AMDHD1 (UniProt Q96NU7)
Experiment: co-immunoprecipitation, western blot
Details: sites S464,S465,S467

binding against the reference (reference: wild-type SMAD2)	binding against the reference (reference: wild-type SMAD3)	Substance
lost	–	SMAD2 (from UniProt Q15796) SMAD2-A (S464A/S465A/S467A)
–	lost	SMAD3 (from UniProt P84022) SMAD3-A (three C-terminal serines to alanine)
